± gives the standard deviation of the averaged measurements.
How the values were obtained:
[1] = system: Saccharomyces cerevisiae; test: protein stability index of tFT-peptide fusion (C-terminal peptide) (PSI (0-1 scale)); higher = more stable (slower turnover); conditions: genetic background: wild type; temperature: 30 C
[2] = system: Saccharomyces cerevisiae; test: as above
Method: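 MPS profiling in S. cerevisiae of the tFT-X12 degron library: putative degron peptides plus stable controls, 12 aa, fused to the C-terminus of a sfGFP-mCherry timer. Cells are FACS-sorted into 8 mCherry/sfGFP bins and deep-sequenced. PSI runs from 0 (unstable) to 1 (stable). Backgrounds are wild type, das1Δ and doa10Δ at 30 °C, and wild type, das1Δ, cdc34-1 and cdc53-1 at 37 °C; 2-3 technical replicates each.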

[3] = genetic background: cdc34-1, temperature: 37 C
[4] = genetic background: cdc53-1, temperature: 37 C
[5] = genetic background: das1 deletion, temperature: 30 C
[6] = genetic background: das1 deletion, temperature: 37 C
[7] = genetic background: doa10 deletion, temperature: 30 C
[8] = genetic background: wild type, temperature: 30 C
[9] = genetic background: wild type, temperature: 37 C
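Also: PSI is a weighted mean of sequencing reads over stability bins, variants kept only with over 10 reads, mCherry proximal and sfGFP distal, peptide attached via GGGS linker.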

Row | Sequence | protein stability index [1] | protein stability index [2, 3] | protein stability index [2, 4] | protein stability index [2, 5] | protein stability index [2, 6] | protein stability index [2, 7] | protein stability index [2, 8] | protein stability index [2, 9]
1 | WHFPCPPLPCPV | 0.4846 ± 0.0013 | 0.4132 ± 0.0036 | 0.42896 ± 0.0003 | 0.325 ± 0.031 | 0.484 ± 0.0032 | 0.298 ± 0.0082 | 0.347 ± 0.035 | 0.4714 ± 0.0025
2 | WILLVLACFSSG | 0.325 ± 0.0036 | 0.25 ± 0.0033 | 0.335 ± 0.051 | 0.272 ± 0.036 | 0.40822 ± 2.1e-05 | 0.215 ± 0.011 | 0.249 ± 0.034 | 0.361 ± 0.017
3 | WLGCVLIGWHVL | 0.27 ± 0.011 | 0.355 ± 0.0098 | 0.413 ± 0.0055 | 0.288 ± 0.048 | 0.481 ± 0.01 | 0.169 ± 0.0054 | 0.19 ± 0.017 | 0.364 ± 0.052
4 | WLKLWSYVTHLG | 0.477 ± 0.036 | 0.66 ± 0.047 | 0.723 ± 0.0092 | 0.632 ± 0.025 | 0.717 ± 0.022 | 0.303 ± 0.0094 | 0.346 ± 0.021 | 0.581 ± 0.017
5 | WSLRFRRMMLRC | 0.283 ± 0.015 | 0.3765 ± 0.00088 | 0.425 ± 0.0072 | 0.429 ± 0.028 | 0.534 ± 0.0069 | 0.137 ± 0.0015 | 0.127 ± 0.026 | 0.16 ± 0.024
6 | WVVVARIFSVFF | 0.515 ± 0.12 | 0.484 ± 0.014 | 0.561 ± 0.02 | 0.445 ± 0.0061 | 0.57 ± 0.0013 | 0.308 ± 0.011 | 0.35 ± 0.018 | 0.469 ± 0.038
7 | WVVVKITAHTAT | 0.326 ± 0.016 | 0.323 ± 0.028 | 0.38 ± 0.021 | 0.22 ± 0.02 | 0.405 ± 0.018 | 0.185 ± 0.0081 | 0.222 ± 0.021 | 0.4 ± 0.0065
8 | WYAGIVFTRVWM | 0.5 ± 0.0095 | 0.54 ± 0.01 | 0.611 ± 0.026 | 0.487 ± 0.015 | 0.654 ± 0.03 | 0.466 ± 0.015 | 0.482 ± 0.02 | 0.622 ± 0.013
9 | YAFLWCVFYLSF | 0.289 ± 0.021 | 0.228 ± 0.0071 | 0.235 ± 0.03 | 0.222 ± 0.028 | 0.337 ± 0.01 | 0.216 ± 0.0098 | 0.196 ± 0.017 | 0.305 ± 0.0082
10 | YCCDYFMFVLVV | 0.255 ± 0.033 | 0.148 ± 0.0029 | 0.189 ± 0.024 | 0.206 ± 0.044 | 0.3012 ± 0.0022 | 0.184 ± 0.009 | 0.183 ± 0.032 | 0.248 ± 0.01
11 | YDLRRIGRIGVG | 0.363 ± 0.016 | 0.316 ± 0.02 | 0.404 ± 0.012 | 0.348 ± 0.019 | 0.402 ± 0.016 | 0.3542 ± 0.003 | 0.338 ± 0.0099 | 0.381 ± 0.026
12 | YFIVVSWFLVCW | 0.184 ± 0.005 | 0.0981 ± 0.019 | 0.199 ± 0.022 | 0.114 ± 0.029 | 0.218 ± 0.0028 | 0.072 ± 0.017 | 0.121 ± 0.0079 | 0.168 ± 0.029
13 | YFLFRYIVITVF | 0.0865 ± 0.032 | 0.0486 ± 0.029 | 0.0672 ± 0.021 | 0.0711 ± 0.025 | 0.135 ± 0.026 | 0.0326 ± 0.015 | 0.0569 ± 0.012 | 0.06947 ± 0.00069
14 | YFRKDYRKMAQH | 0.255 ± 0.15 | 0.594 ± 0.049 | 0.74478 ± 0.00072 | 0.669 ± 0.06 | 0.7429 ± 0.0026 | 0.17256 ± 0.00013 | 0.163 ± 0.046 | 0.453 ± 0.055
15 | YGAGDLTKYFIV | 0.106 ± 0.016 | 0.637 ± 0.037 | 0.684 ± 0.046 | 0.607 ± 0.0086 | 0.726 ± 0.039 | 0.114 ± 0.0065 | 0.122 ± 0.028 | 0.174 ± 0.034
16 | YHFRLLVTCCPC | 0.321 ± 0.0033 | 0.273 ± 0.0031 | 0.325 ± 0.0097 | 0.264 ± 0.016 | 0.38 ± 0.01 | 0.225 ± 0.0037 | 0.257 ± 0.0088 | 0.351 ± 0.015
17 | YLCCFSVAFFLG | 0.257 ± 0.072 | 0.175 ± 0.0039 | 0.331 ± 0.098 | 0.206 ± 0.039 | 0.3961 ± 0.00067 | 0.131 ± 4.8e-05 | 0.153 ± 0.018 | 0.317 ± 0.024
18 | YLFDQYDWYKSM | 0.368 ± 0.081 | 0.643 ± 0.063 | 0.7663 ± 0.007 | 0.666 ± 0.041 | 0.8049 ± 0.0067 | 0.156 ± 0.0072 | 0.162 ± 0.027 | 0.348 ± 0.02
19 | YLLTAFLSAFNP | 0.495 ± 0.11 | 0.554 ± 0.054 | 0.683 ± 0.018 | 0.543 ± 0.019 | 0.55 ± 0.0074 | 0.529 ± 0.041 | 0.522 ± 0.031 | 0.537 ± 0.02
20 | YLMVSKMSLRIG | 0.401 ± 0.0052 | 0.602 ± 0.021 | 0.643 ± 0.0084 | 0.532 ± 0.021 | 0.609 ± 0.017 | 0.296 ± 0.054 | 0.306 ± 0.026 | 0.516 ± 0.025
21 | YPGMFLQLVWWI | 0.176 ± 0.026 | 0.4297 ± 0.0022 | 0.552 ± 0.036 | 0.433 ± 0.03 | 0.5804 ± 0.0042 | 0.1211 ± 0.0011 | 0.117 ± 0.0026 | 0.126 ± 0.0019
22 | YPSASLLPLFSC | 0.171 ± 0.004 | 0.594 ± 0.06 | 0.733 ± 0.017 | 0.622 ± 0.014 | 0.748 ± 0.015 | 0.126 ± 0.018 | 0.136 ± 0.017 | 0.184 ± 0.016
23 | YQFDGLVFLRLS | 0.4808 ± 0.0011 | 0.716 ± 0.02 | 0.724 ± 0.0064 | 0.645 ± 0.014 | 0.774 ± 0.018 | 0.3501 ± 0.0014 | 0.4 ± 0.017 | 0.6515 ± 0.00071
24 | YRFVWRWIPICA | 0.0631 ± 0.022 | 0.0342 ± 0.01 | 0.0919 ± 0.045 | 0.12 ± 0.038 | 0.116 ± 0.032 | 0.0307 ± 0.0093 | 0.038 ± 0.014 | 0.057 ± 0.026
25 | YRWERIYIGLRL | 0.291 ± 0.024 | 0.397 ± 0.037 | 0.523 ± 0.036 | 0.49 ± 0.039 | 0.615 ± 0.019 | 0.191 ± 0.008 | 0.188 ± 0.018 | 0.36 ± 0.0093
26 | YSALHNPPQPVT | 0.736 ± 0.02 | 0.665 ± 0.032 | 0.725 ± 0.014 | 0.6556 ± 0.0065 | 0.7216 ± 0.0049 | 0.658 ± 0.014 | 0.658 ± 0.011 | 0.6971 ± 0.0062
27 | YTLWFLAWGLVF | 0.315 ± 0.023 | 0.262 ± 0.036 | 0.308 ± 0.016 | 0.241 ± 0.033 | 0.3865 ± 0.0028 | 0.209 ± 0.011 | 0.22 ± 0.034 | 0.36 ± 0.025
28 | YWRNYLVLVCKF | 0.359 ± 0.065 | 0.836 ± 0.04 | 0.794 ± 0.075 | 0.592 ± 0.023 | 0.778 ± 0.023 | 0.487 ± 0.07 | 0.481 ± 0.046 | 0.613 ± 0.024
29 | YYLHFRFFIYVF | 0.113 ± 0.031 | 0.0536 ± 0.019 | 0.0916 ± 0.0088 | 0.108 ± 0.035 | 0.201 ± 0.0051 | 0.0759 ± 0.019 | 0.0626 ± 0.013 | 0.13 ± 0.0084
